Values joined by “and” are separate entries in the source; they are usually repeats but may differ in a detail not shown here. Equal values may be shown once.
Molecular target: human CCR2 (endogenous, on THP-1 cells, THP-1 cell membranes, PBMC and whole blood leukocytes) (human) (UniProt P41597)
Experiment: competition with 0.1 nM [125I]MCP-1 on fresh PBMC (500,000 cells), filtration and scintillation counting

Sequence of UniProt P41597 (P41597 whole entry): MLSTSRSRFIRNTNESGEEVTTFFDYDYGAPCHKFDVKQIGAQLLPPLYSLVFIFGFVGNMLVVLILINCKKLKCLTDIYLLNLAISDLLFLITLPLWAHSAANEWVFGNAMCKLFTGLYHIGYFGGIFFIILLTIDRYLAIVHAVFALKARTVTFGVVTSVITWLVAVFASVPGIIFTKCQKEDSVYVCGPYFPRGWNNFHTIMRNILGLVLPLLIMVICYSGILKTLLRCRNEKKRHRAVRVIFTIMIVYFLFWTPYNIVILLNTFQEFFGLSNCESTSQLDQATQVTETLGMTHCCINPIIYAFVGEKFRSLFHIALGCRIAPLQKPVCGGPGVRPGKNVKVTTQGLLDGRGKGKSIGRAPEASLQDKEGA

How did the IC50 turn out when murine monoclonal antibody LS132.1D9 was run?
The IC50 was 0.2 nM and 0.04 µg/mL.

Source: EP1783227A1
